The numbers were not newly measured in PMC3798119, which cites them from elsewhere.

The series has as its target basigin (CD147) (Homo sapiens) (UniProt P35613).
UniProt P35613, sequence (P35613 22-325): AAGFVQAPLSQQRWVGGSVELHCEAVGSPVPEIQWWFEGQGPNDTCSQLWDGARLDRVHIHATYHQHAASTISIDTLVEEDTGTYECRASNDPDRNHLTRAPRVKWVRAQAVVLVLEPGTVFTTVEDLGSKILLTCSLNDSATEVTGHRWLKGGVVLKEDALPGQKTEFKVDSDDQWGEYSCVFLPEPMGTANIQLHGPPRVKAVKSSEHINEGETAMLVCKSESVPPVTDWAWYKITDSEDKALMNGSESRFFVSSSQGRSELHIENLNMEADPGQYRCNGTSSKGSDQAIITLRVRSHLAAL

The Kd is the concentration at which binding is half-saturated. Consider RH5 (from UniProt Q8IFM5), for which the dissociation constant (Kd) was 1.1 µM.
